167 variants from the Human Domainome abundance scans (Beltran et al. 2025) can be followed below.

± gives the uncertainty stated by the source.

First the molecules themselves.
B1: Gamma-crystallin C, residues 91 to 170; numbered along this chain, P07315 (parent)
chain: RLYEREDHKGLMMELSEDCPSIQDRFHLSEIRSLHVLEGCWVLYELPNYRGRQYLLRPQEYRRCQDWGAMDAKAGSLRRV
B2: Transitional endoplasmic reticulum ATPase, residues 26 to 106; numbered along this chain, P55072 (parent)
chain: LIVDEAINEDNSVVSLSQPKMDELQLFRGDTVLLKGKKRREAVCIVLSDDTCSDEKIRMNRVVRNNLRVRLGDVISIQPCP

In one data set the parent is B1. Briefly: abundance fitness (aPCA) (normalised: wild type 0, dead -1); higher = more abundant; growth selection in yeast, the domain comes from the species named. The conditions noted are these: Homo sapiens.
On to V80F, for which the abundance fitness was -0.1 ± 0.17.
On the same count and under the same terms, as for V80I, the figure is -0.341 ± 0.21; as for S76A, -0.628 ± 0.14.
The same measure, in the same setting: as for S76P, the figure is -0.776 ± 0.19.
Regarding S76V, the abundance fitness was -0.773 ± 0.18.
Same read-out and setting: as for S76I, the figure is 0.016 ± 0.29; as for S76H, -0.735 ± 0.36; as for K73P, -0.628 ± 0.15.
Consider K73C, for which the abundance fitness is -0.175 ± 0.17.
As to K73V, the abundance fitness is -0.18 ± 0.08.
In the case of K73Y, the abundance fitness is -0.295 ± 0.21.
On the same count and under the same terms, as for K73L, the figure is -0.185 ± 0.072.
Regarding K73E, the abundance fitness is -0.495 ± 0.14.
On the same count and under the same terms, as for K73W, the figure is -0.321 ± 0.12; as for K73F, -0.368 ± 0.14; as for K73G, -0.304 ± 0.071.
In the case of K73H, the abundance fitness was -0.042 ± 0.18.
Consider K73S, for which the abundance fitness was -0.145 ± 0.076.
Still for that read-out and setting: as for K73Q, the figure is -0.264 ± 0.16.
On the same count and under the same terms, as for K73N, the figure is -0.026 ± 0.15.
Same read-out and setting: as for K73R, the figure is 0.017 ± 0.05; as for K73M, -0.231 ± 0.11; as for K73T, -0.124 ± 0.087.
With K73A, the abundance fitness is -0.069 ± 0.065.
For the variant R79S, the abundance fitness was -0.202 ± 0.29.
The same measure, in the same setting: as for A72N, the figure is -0.066 ± 0.17; as for A72H, -0.375 ± 0.15.
In the case of A72G, the abundance fitness is -0.118 ± 0.047.
The same measure, in the same setting: as for A72T, the figure is -0.207 ± 0.071; as for A72V, -0.554 ± 0.15; as for A72S, -0.058 ± 0.064.
Turning to A72Y, the abundance fitness is -0.452 ± 0.26.
The same measure, in the same setting: as for A72F, the figure is -0.5 ± 0.12; as for A72W, -0.365 ± 0.12.
With A72M, the abundance fitness is -0.997 ± 0.35.
With A72I, the abundance fitness is -0.745 ± 0.23.
Same read-out and setting: as for A72P, the figure is -0.007 ± 0.063; as for A72R, -0.782 ± 0.093; as for A69T, -0.361 ± 0.2.
Same read-out and setting: as for A69M, the figure is -0.847 ± 0.15.
A69D: the abundance fitness was -0.701 ± 0.42.
Regarding A69W, the abundance fitness is -0.668 ± 0.4.
On the same count and under the same terms, as for A69V, the figure is -0.818 ± 0.22.
Turning to A69C, the abundance fitness is -0.621 ± 0.46.
The same measure, in the same setting: as for A69P, the figure is -0.968 ± 0.29; as for A69G, -0.196 ± 0.089.
On the same count and under the same terms, as for A69S, the figure is -0.074 ± 0.074; as for A69R, -0.964 ± 0.29.
On the same count and under the same terms, as for A69Q, the figure is -0.38 ± 0.054; as for A69L, -0.935 ± 0.26.
For the variant A74V, the abundance fitness is 0.036 ± 0.067.
As for A74I, the abundance fitness was found to be 0.124 ± 0.24.
For A74Q, the abundance fitness was -0.797 ± 0.21.
With A74G, the abundance fitness was -0.454 ± 0.1.
Still for that read-out and setting: as for A74Y, the figure is -0.781 ± 0.45; as for A74T, -0.128 ± 0.045; as for A74P, -0.779 ± 0.13.
Still for that read-out and setting: as for A74D, the figure is -0.749 ± 0.35; as for A74E, -0.56 ± 0.13; as for A74M, -0.836 ± 0.37.
For the variant A74C, the abundance fitness was -0.177 ± 0.21.
On to A74S, for which the abundance fitness is -0.314 ± 0.062.
Same read-out and setting: as for A74L, the figure is -0.454 ± 0.086.
For D71L, the abundance fitness is -0.5 ± 0.078.
In the case of D71A, the abundance fitness is -0.483 ± 0.19.
For D71K, the abundance fitness is -0.126 ± 0.078.
Still for that read-out and setting: as for D71T, the figure is 0.024 ± 0.12; as for D71R, -0.224 ± 0.066.
For the variant D71Y, the abundance fitness is -0.134 ± 0.12.
As to D71S, the abundance fitness is -0.015 ± 0.057.
On the same count and under the same terms, as for D71C, the figure is -0.029 ± 0.11; as for D71N, -0.173 ± 0.18.
Same read-out and setting: as for D71F, the figure is -0.148 ± 0.099.
Consider D71H, for which the abundance fitness was -0.173 ± 0.11.
D71P: the abundance fitness was -0.933 ± 0.35.
On to D71W, for which the abundance fitness is -0.281 ± 0.085.
Consider D71G, for which the abundance fitness is -0.165 ± 0.067.
On the same count and under the same terms, as for D71M, the figure is -0.443 ± 0.23; as for D71I, -0.297 ± 0.18.
For D71E, the abundance fitness is -0.185 ± 0.11.
The same measure, in the same setting: as for G75Q, the figure is -0.746 ± 0.21; as for G75S, -0.479 ± 0.12; as for G75C, -0.516 ± 0.25.
With G75N, the abundance fitness is -0.767 ± 0.46.
On the same count and under the same terms, as for G75L, the figure is -0.826 ± 0.27.
Still for that read-out and setting: as for G75H, the figure is -0.736 ± 0.47; as for G75T, -0.949 ± 0.43.
The same measure, in the same setting: as for G75W, the figure is -0.989 ± 0.26.
For G75V, the abundance fitness was -0.815 ± 0.17.
Still for that read-out and setting: as for G75R, the figure is -0.933 ± 0.14; as for G75A, -0.607 ± 0.095; as for G75E, -0.984 ± 0.49.
On to G75P, for which the abundance fitness was -0.84 ± 0.18.
On the same count and under the same terms, as for G75D, the figure is -0.705 ± 0.21; as for G68D, -0.679 ± 0.27.
Regarding G68C, the abundance fitness is -0.696 ± 0.48.
As to G68T, the abundance fitness is -1.01 ± 0.28.
For the variant G68L, the abundance fitness is -0.529 ± 0.092.
On to G68A, for which the abundance fitness was -0.721 ± 0.15.
Take G68Q: the abundance fitness is -0.763 ± 0.2.
Still for that read-out and setting: as for G68P, the figure is -0.784 ± 0.22; as for G68R, -0.764 ± 0.12; as for G68S, -0.44 ± 0.11.
Still for that read-out and setting: as for G68K, the figure is -0.623 ± 0.26; as for G68V, -0.985 ± 0.29; as for M70K, -0.053 ± 0.15.
Same read-out and setting: as for M70E, the figure is 0.034 ± 0.1; as for M70R, -0.016 ± 0.039.
For M70V, the abundance fitness is -0.017 ± 0.083.
Same read-out and setting: as for M70T, the figure is -0.06 ± 0.079; as for M70D, 0.094 ± 0.14.
With M70G, the abundance fitness is -0.167 ± 0.062.
Consider M70H, for which the abundance fitness stood at 0.049 ± 0.11.
On the same count and under the same terms, as for M70S, the figure is -0.052 ± 0.052; as for M70Y, -0.105 ± 0.14; as for M70W, -0.257 ± 0.075.
The same measure, in the same setting: as for M70L, the figure is -0.063 ± 0.06.
Take M70F: the abundance fitness was -0.226 ± 0.13.
Still for that read-out and setting: as for M70I, the figure is 0.097 ± 0.23.
Consider M70C, for which the abundance fitness is -0.217 ± 0.25.
Same read-out and setting: as for M70P, the figure is 0.064 ± 0.06.
Take L77R: the abundance fitness was -1.06 ± 0.31.
Same read-out and setting: as for L77E, the figure is -0.966 ± 0.49; as for L77I, 0.011 ± 0.36; as for L77D, -0.94 ± 0.5.
The same measure, in the same setting: as for L77T, the figure is -0.626 ± 0.23; as for L77V, -0.169 ± 0.096; as for L77M, -0.035 ± 0.1.
On the same count and under the same terms, as for L77F, the figure is -0.304 ± 0.15; as for L77A, -0.524 ± 0.056.
With L77C, the abundance fitness was -0.325 ± 0.16.
W67P: the abundance fitness was -0.935 ± 0.17.
Consider W67Q, for which the abundance fitness was -0.681 ± 0.19.
The same measure, in the same setting: as for W67L, the figure is -0.951 ± 0.14; as for W67E, -1.07 ± 0.49; as for W67G, -1 ± 0.19.
Same read-out and setting: as for W67H, the figure is -0.89 ± 0.42; as for W67T, -0.612 ± 0.27; as for W67S, -0.778 ± 0.11.
On to W67R, for which the abundance fitness is -0.744 ± 0.1.
Still for that read-out and setting: as for W67C, the figure is -0.703 ± 0.25; as for W67K, -0.827 ± 0.36.

In the next data set the parent is B2. The description is as above. The settings on record: Homo sapiens.
On to C44R, for which the abundance fitness is -0.104 ± 0.053.
With K56A, the abundance fitness was determined as 0.018 ± 0.07.
With K56N, the abundance fitness amounted to 0.111 ± 0.23.
Still for that read-out and setting: as for K56D, the figure is -0.271 ± 0.15.
With K56Q, the abundance fitness came out at 0.067 ± 0.1.
The same measure, in the same setting: as for N65Q, the figure is -0.075 ± 0.095; as for N65R, -0.044 ± 0.054; as for N65V, -0.131 ± 0.063.
As to N65F, the abundance fitness is -0.116 ± 0.07.
On the same count and under the same terms, as for N65T, the figure is -0.07 ± 0.1.
Turning to R39K, the abundance fitness is -0.041 ± 0.11.
In the case of R39C, the abundance fitness turned out to be 0.034 ± 0.13.
Same read-out and setting: as for R39A, the figure is -0.001 ± 0.06; as for K20F, -0.233 ± 0.09.
In the case of K20I, the abundance fitness is -0.008 ± 0.058.
On to K20E, for which the abundance fitness is -0.705 ± 0.12.
On to D54R, for which the abundance fitness was -0.205 ± 0.038.
D54N: the abundance fitness was -0.072 ± 0.089.
Same read-out and setting: as for D54H, the figure is -0.073 ± 0.18.
Still for that read-out and setting: as for V32R, the figure is -0.98 ± 0.11; as for V32P, -1.09 ± 0.28; as for V62W, -0.028 ± 0.063.
As for V62Y, the abundance fitness is -0.195 ± 0.13.
With V62D, the abundance fitness is 0.004 ± 0.12.
For the variant V62N, the abundance fitness was found to be 0.109 ± 0.21.
